Activity data for three molecules are collected here from US20240167008, “NOVEL CRISPR ENZYMES, METHODS, SYSTEMS AND USES THEREOF” (Beam Therapeutics Inc., published 2024).

For this data set, the target named is T1, ScoCas9 (human codon-optimized) (Streptococcus constellatus).
T1 chain: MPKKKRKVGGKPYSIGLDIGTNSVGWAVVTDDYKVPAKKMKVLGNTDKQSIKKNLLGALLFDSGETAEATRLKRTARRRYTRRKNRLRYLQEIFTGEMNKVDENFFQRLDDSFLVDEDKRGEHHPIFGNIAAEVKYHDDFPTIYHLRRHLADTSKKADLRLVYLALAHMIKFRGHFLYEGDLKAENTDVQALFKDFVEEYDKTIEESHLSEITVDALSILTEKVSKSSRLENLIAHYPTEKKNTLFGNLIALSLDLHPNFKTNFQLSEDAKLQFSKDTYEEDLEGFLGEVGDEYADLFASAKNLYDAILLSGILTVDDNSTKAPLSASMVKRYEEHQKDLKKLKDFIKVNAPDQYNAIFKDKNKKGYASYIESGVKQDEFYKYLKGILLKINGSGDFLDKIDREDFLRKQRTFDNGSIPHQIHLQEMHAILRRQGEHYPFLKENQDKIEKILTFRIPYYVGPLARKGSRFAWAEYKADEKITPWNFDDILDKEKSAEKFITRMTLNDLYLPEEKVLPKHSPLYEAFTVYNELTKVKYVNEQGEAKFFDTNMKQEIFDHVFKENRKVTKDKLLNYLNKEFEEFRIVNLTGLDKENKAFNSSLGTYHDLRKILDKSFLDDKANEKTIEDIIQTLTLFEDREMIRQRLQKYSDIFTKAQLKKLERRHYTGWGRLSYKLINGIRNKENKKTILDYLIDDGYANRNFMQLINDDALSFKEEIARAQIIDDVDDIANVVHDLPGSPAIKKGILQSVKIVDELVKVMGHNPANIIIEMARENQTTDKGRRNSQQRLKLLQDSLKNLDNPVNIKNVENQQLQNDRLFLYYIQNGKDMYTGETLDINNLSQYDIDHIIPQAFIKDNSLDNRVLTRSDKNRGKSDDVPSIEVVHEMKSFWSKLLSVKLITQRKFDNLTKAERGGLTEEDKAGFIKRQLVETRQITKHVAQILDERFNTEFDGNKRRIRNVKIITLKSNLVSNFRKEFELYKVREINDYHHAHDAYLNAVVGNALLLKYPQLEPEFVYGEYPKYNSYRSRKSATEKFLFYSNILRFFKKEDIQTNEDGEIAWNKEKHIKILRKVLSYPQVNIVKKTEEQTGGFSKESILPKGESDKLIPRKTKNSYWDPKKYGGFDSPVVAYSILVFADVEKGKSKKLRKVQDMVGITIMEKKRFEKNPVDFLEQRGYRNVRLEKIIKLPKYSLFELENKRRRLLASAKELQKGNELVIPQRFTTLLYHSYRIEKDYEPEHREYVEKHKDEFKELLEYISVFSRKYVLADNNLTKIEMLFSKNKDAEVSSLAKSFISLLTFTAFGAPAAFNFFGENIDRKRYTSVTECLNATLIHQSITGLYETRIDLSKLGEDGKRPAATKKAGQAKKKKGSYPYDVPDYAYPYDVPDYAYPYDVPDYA
The experiment in a line: cell_activity; PAM NGG; HEK293T. The conditions noted are these: tags: N-terminal and C-terminal NLS, 3xHA. How it is done: HEK293T cells were plated in a 96-well plate. Cells were transfected with expression vectors containing Cas9 and guide RNAs (Table 10), 24 hours after plating. Cells were harvested 72 hours post-transfection and total DNA was extracted.

B1: Sco guide 2 sgRNA ; guide 2 site (ssRNA ; dsDNA)
RNA: GAAACAAUGAUAACAAGACCGUUUUAGAGCUGUGCUGUUUAAACAACACAGCAAGUUAAAAUAAGGCUUUGUCCGUACUCAAGCUUGCAAAAGCGUGCACCGAUUCGGUGCU
DNA 1: GAAACAATGATAACAAGACCTGG
DNA 2: CCAGGTCTTGTTATCATTGTTTC
B1 gave an activity of over 30 % indel.

B2: Sco guide 9 sgRNA ; guide 9 site (ssRNA ; dsDNA)
RNA: GUUGAAGAUGAAGCCCAGAGGUUUUAGAGCUGUGCUGUUUAAACAACACAGCAAGUUAAAAUAAGGCUUUGUCCGUACUCAAGCUUGCAAAAGCGUGCACCGAUUCGGUGCU
DNA 1: GTTGAAGATGAAGCCCAGAGCGG
DNA 2: CCGCTCTGGGCTTCATCTTCAAC
Turning to B2, the activity was over 30 % indel.

B3: Sco guide 11 sgRNA ; guide 11 site (ssRNA ; dsDNA)
RNA: UGCUGCACACAGCAGGCCUUGUUUUAGAGCUGUGCUGUUUAAACAACACAGCAAGUUAAAAUAAGGCUUUGUCCGUACUCAAGCUUGCAAAAGCGUGCACCGAUUCGGUGCU
DNA 1: TGCTGCACACAGCAGGCCTTTGG
DNA 2: CCAAAGGCCTGCTGTGTGCAGCA
As to B3, the activity was about 2 % indel.
